Assay results: publication PMC10304631 (Pharmaceutics, 2023)

Key:
[1] = predicted log P; ref Drugbank.com and pubchem.ncbi.nlm.nih.gov (accessed on 3 January 2023); cited from earlier work
Caco-2 cells [2] = experiment: PEN-mediated uptake of TAMRA-insulin by flow cytometry; type: cell-based, human; settings: 5 µM TAMRA-insulin alone or with 20 µM PEN, 1 h, 37 °C, mean ± SD, N = 2, n = 3
Experimental: The controls were incubated with a buffer without CPP or insulin. The cells were kept on a shaking table (37 °C, 50 rpm) for 1 h. Hereafter, the test solutions were removed, and the cells were washed twice with cold phosphate-buffered saline (4 °C) and trypsinized for 10–15 min. Trypsinization was terminated by the addition of excess cold hHBSS (4 °C) containing 10% (v/v) FBS (hHBSS/FBS). The cells were then collected and centrifuged at 4000 rpm (1076× g, 4 °C). The supernatant was removed, and the cells were washed once with hHBSS/FBS and centrifuged again at the same conditions before suspension in hHBSS/FBS containing 0.3% (v/v) DRAQ7 as a marker of the plasma membrane’s integrity. To quench extracellular plasma membrane-associated fluorescence, a parallel experiment was performed using the same test solutions, with the addition of trypan blue (TB) at a final concentration of 0.1% (v/v) just prior to analysis.

Caco-2 cells [3] = experiment: PEN-mediated uptake of TAMRA-insulin by confocal microscopy (CLSM); type: cell-based, human; settings: undifferentiated Caco-2 cells; 5 µM TAMRA-insulin alone, pH 7.4, 1 h

Compound	Log P [1]	MFI (A.N.) of TAMRA-insulin (Caco-2 cells [2]; pH 6.5, with Trypan Blue (0.1% v/v)) [A.N.]	MFI (A.N.) of TAMRA-insulin (Caco-2 cells [2]; pH 7.4, with Trypan Blue (0.1% v/v)) [A.N.]	MFI (A.N.) of TAMRA-insulin (Caco-2 cells [2]; pH 7.4, without Trypan Blue) [A.N.]	Uptake of TAMRA-insulin (CLSM) (Caco-2 cells [3])
OC[C@@H](O)[C@@H](O)[C@H](O)[C@H](O)CO [Mannitol]	−3.7	–	–	–	–
TAMRA-Insulin: insulin labeled with TAMRA (5/6-carboxy-tetramethyl-rhodamine succinimidyl ester)	–	49.6 ± 1.9	40.8 ± 2.6	41.2 ± 2.9	uptake was absent
Vancomycin	−4.4	–	–	–	–
